According to PMC10603135, “Phosphorylation-dependent pseudokinase domain dimerization drives full-length MLKL oligomerization” (Nature Communications, 2023):
Each block holds one molecule with its values, some of them ahead of it.

Experiments:
[1] = molecular target: MLKL (mixed lineage kinase domain-like) pseudokinase domain, 190-471 (UniProt Q8NB16); test: size-exclusion chromatography; settings: reference: p-MLKL pseudokinase domain; sites T357,S358,T355,S360
[2] = molecular target: full-length human MLKL (residues 2-471) T357E/S358E mutant (human) (UniProt Q8NB16); test: SEC; full-length MLKL (WT or T357E/S358E) co-expressed with RIPK3 kinase domain in Sf21, purified by GST on MLKL, tag cleaved, HiLoad Superdex 200 in SEC buffer; fractions on reducing SDS-PAGE
[3] = molecular target: phosphorylated human MLKL (p-MLKL) pseudokinase domain (190-471) (human) (UniProt Q8NB16); test: SEC-SAXS; p-MLKL pseudokinase domain, 40 uL of 7.2 mg/mL, inline Superdex 200 Increase 5/150, 0.2 M NaCl, 20 mM HEPES pH 7.5, 5% v/v glycerol, 283 K
[4] = molecular target: phosphorylated human MLKL (p-MLKL) pseudokinase domain (190-471) (human) (UniProt Q8NB16); test: SEC; purified pseudokinase domain on Superdex 200 in 20 mM HEPES pH 7.5, 200 mM NaCl, 5% v/v glycerol
[5] = molecular target: unphosphorylated human MLKL pseudokinase domain (residues 190-471) (human) (UniProt Q8NB16); test: SEC-SAXS; MLKL pseudokinase domain:Mb27 complex pre-purified on Superdex 75, 50 uL of 5.6 mg/mL, inline Superdex 200 Increase 5/150, 0.2 M NaCl, 20 mM HEPES pH 7.5, 5% v/v glycerol, 283 K
[6] = molecular target: the molecule itself; test: SEC; full-length MLKL expressed alone in Sf21, purified, HiLoad Superdex 200 in SEC buffer
[7] = molecular target: the molecule itself; test: SEC; full-length MLKL (WT or T357E/S358E) co-expressed with RIPK3 kinase domain in Sf21, purified by GST on MLKL, tag cleaved, HiLoad Superdex 200 in SEC buffer; fractions on reducing SDS-PAGE

Molecule: human RIPK3 kinase domain (residues 1-316; C3S, C110A), co-expressed with full-length MLKL (from UniProt Q9Y572 1-316) (domain or fragment)
stoichiometry N (RIPK3 per MLKL (1:1)) [2]: 1

Molecule: unphosphorylated human MLKL pseudokinase domain (residues 190-471) (from UniProt Q8NB16 190-471) (domain or fragment)
stoichiometry N [5]: 2

B1: recombinant full-length human MLKL (residues 2-471), wild-type (natural protein, UniProt Q8NB16 2-471, looked up)
chain: ENLKHIITLGQVIHKRCEEMKYCKKQCRRLGHRVLGLIKPLEMLQDQGKRSVPSEKLTTAMNRFKAALEEANGEIEKFSNRSNICRFLTASQDKILFKDVNRKLSDVWKELSLLLQVEQRMPVSPISQGASWAQEDQQDADEDRRAFQMLRRDNEKIEASLRRLEINMKEIKETLRQYLPPKCMQEIPQEQIKEIKKEQLSGSPWILLRENEVSTLYKGEYHRAPVAIKVFKKLQAGSIAIVRQTFNKEIKTMKKFESPNILRIFGICIDETVTPPQFSIVMEYCELGTLRELLDREKDLTLGKRMVLVLGAARGLYRLHHSEAPELHGKIRSSNFLVTQGYQVKLAGFELRKTQTSMSLGTTREKTDRVKSTAYLSPQELEDVFYQYDVKSEIYSFGIVLWEIATGDIPFQGCNSEKIRKLVAVKRQQEPLGEDCPSELREIIDECRAHDPSVRPSVDEILKKLSTFSK
notes: human MLKL, called full-length, residues 2-471; Expressed alone it elutes primarily as monomers with a smaller proportion of tetramers; with Mb27 all as tetramers; also called full-length MLKL; MLKL alone; source: Sf21 insect cells, expressed alone or co-expressed with Mb27, purified (glutathione resin, TEV cleavage, SEC); not shown: GST, N-terminal, cleaved
stoichiometry N [6]: 4

B2: full-length human p-MLKL tetramer (wild-type MLKL 2-471 co-expressed with RIPK3 kinase domain) (natural protein, UniProt Q8NB16 2-471, looked up)
chain: B1 chain
modifications: phosphorylated by co-expressed RIPK3 (sites not printed for the full-length protein); disulfide-linked via C184
notes: human MLKL, called full-length, residues 2-471; The purified tetramer carries sub-stoichiometric RIPK3 kinase domain; also called wild-type p-MLKL tetramer; MLKL (WT):RIPK3; source: Sf21 insect cells, co-expressed with RIPK3 kinase domain, purified (glutathione resin, TEV cleavage, SEC); not shown: GST, N-terminal, cleaved
stoichiometry N [7]: 4

Results, then the molecule that gave them:

binding against the reference [1]: lost
Molecule: MLKL (mixed lineage kinase domain-like) pseudokinase domain, 190-471 (from UniProt Q8NB16) λ phosphatase treated p-MLKL

stoichiometry N [3]: 2
stoichiometry N [4]: 2
Molecule: phosphorylated human MLKL (p-MLKL) pseudokinase domain (190-471) (from UniProt Q8NB16 190-471) (domain or fragment)
